{
  "source": "patent US20200165313A1",
  "about": "“EGF(A) ANALOGUES, PREPARATION, FORMULATIONS AND USES THEREOF” (Novo Nordisk A/S, priority 2017, published 2020)",
  "biological_target": "T1, hPCSK9 (Homo sapiens, UniProt Q8NBP7)",
  "T1 construct": "purchased Sino Biologicals, China",
  "T1 sequence (Q8NBP7 153-692)": "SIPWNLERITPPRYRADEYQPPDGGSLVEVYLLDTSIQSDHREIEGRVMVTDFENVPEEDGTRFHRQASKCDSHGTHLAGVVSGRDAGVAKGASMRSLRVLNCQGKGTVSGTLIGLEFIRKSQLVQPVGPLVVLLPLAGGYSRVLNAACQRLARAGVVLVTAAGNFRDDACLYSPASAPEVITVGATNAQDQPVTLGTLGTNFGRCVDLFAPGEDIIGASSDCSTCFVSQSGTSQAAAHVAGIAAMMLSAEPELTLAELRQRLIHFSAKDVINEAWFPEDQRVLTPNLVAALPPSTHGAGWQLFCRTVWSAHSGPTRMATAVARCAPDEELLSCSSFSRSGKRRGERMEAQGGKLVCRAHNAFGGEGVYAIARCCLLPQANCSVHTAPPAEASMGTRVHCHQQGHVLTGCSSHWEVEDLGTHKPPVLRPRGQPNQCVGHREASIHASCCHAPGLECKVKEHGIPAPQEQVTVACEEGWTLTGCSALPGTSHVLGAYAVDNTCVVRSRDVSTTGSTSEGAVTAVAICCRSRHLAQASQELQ",
  "assay": "hPCSK9 challenge model (hepatic LDL-R expression in mice, Western Blot)",
  "assay_type": "in vivo, mouse",
  "settings": "healthy control 100%, hPCSK9 alone 0%, dose of inhibitor 22 nmol/kg",
  "procedure": "The aim of this study was to show the change in the LDL receptor expression level in mouse liver in response to inhibiting the action of intravenously injected hPCSK9 with an anti-PCSK9 peptide.\nHealthy male BalBC or NMRI mice (Charles River, Germany) are injected with an anti-PCSK9 peptide, either s.c. or i.v. 15-120 minutes before injecting hPCSK9 (Sino Biologicals, China) intravenously in the tail vein at a dose of 0.4 mg/kg. Sixty minutes after the injection of hPCSK9, the animals are anaesthetised in isoflurane and euthanised by cervical dislocation. The liver is then quickly excised and snapfrozen in liquid nitrogen. The livers are kept at −80 degrees celsius until analysis.\nThe proteins were transferred to nitrocellulose membranes (iBlot 2 NC Regular stacks, novex # IB23001) according to manufacturer's instructions (Life Technology). Equal protein transfer was confirmed by Ponceau S (Sigma, P7170) staining of the membranes and the membranes were further blocked in blocking buffer (TBS-T, 2% Tween). […] Quantitative analysis of chemiluminescent signals from Western blots was done with MultiGauge software (Fujifilm).\n“Vehicle-vehicle” is the group of healthy controls (baseline level), “vehicle-hPCSK9” is the group injected with hPCSK9 alone.",
  "data": [
    {"substance": "Alirocumab: anti-PCSK9 antibody, control molecule in the hPCSK9 challenge model", "values": [
      {"measurement": "Percentage of baseline", "value": 157, "unit": "%"}
    ]}
  ]
}
